Assay [1] deals with T1, C1s in normal cynomolgus monkey serum (CMS, CompTech NCYS) (cynomolgus monkey, UniProt A0A2K5VQX9 16-685).
T1 sequence: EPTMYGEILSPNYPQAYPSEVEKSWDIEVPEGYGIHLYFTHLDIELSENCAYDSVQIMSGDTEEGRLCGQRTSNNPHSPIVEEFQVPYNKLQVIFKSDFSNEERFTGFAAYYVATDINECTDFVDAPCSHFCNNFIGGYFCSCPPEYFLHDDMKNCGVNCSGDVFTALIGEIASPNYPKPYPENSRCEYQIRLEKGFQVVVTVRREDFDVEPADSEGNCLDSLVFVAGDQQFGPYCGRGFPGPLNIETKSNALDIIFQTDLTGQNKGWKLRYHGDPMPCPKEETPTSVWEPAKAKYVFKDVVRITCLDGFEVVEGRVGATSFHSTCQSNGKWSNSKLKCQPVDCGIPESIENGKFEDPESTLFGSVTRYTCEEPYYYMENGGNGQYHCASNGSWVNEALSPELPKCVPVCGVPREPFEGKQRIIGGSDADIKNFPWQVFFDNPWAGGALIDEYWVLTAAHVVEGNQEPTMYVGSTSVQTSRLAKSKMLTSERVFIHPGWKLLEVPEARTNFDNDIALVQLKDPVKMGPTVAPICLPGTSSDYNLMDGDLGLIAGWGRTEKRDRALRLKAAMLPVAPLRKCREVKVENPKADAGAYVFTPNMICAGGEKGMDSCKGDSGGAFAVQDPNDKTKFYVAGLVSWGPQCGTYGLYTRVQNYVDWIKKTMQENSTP
Description: cell-based or functional assay.

For assay [2], the target named is T2, C1s in normal human serum (NHS, CompTech NHS) (human, UniProt P09871 16-688).
T2 sequence (looked up): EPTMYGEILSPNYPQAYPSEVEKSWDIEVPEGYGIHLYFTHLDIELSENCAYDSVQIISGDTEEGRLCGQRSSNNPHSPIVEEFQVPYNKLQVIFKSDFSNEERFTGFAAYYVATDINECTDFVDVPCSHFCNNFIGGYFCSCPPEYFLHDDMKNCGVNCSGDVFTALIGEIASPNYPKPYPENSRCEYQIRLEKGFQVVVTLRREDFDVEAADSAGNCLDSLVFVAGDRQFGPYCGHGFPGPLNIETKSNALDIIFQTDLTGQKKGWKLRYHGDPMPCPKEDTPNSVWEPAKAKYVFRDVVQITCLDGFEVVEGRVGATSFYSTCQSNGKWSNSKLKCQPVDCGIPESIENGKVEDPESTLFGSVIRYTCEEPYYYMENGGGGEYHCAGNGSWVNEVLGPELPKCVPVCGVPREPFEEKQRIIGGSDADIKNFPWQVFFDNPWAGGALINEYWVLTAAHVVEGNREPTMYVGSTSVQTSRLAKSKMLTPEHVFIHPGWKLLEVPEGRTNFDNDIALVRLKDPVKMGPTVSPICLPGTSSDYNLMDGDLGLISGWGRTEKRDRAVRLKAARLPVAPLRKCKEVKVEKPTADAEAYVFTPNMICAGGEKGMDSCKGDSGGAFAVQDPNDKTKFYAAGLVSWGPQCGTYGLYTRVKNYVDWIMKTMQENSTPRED
Description: cell-based or functional assay.

The target in assay [3] is T3, full-length human C1s (produced in house) (human, UniProt P09871 16-688).
T3 construct: Called full-length; Partly auto-cleaved at R422-I423 on blots; also called HuC1s; Hu C1s
T3 sequence: T2 sequence (looked up)
Description: ELISA, plate coated with 200 ng/well HuC1s, OD450nm. The protocol:
The next morning, plates were blocked with SuperBlock T20 blocking buffer (Thermo Scientific 37536) for 1 h with gentle shaking. Then, various concentrations of anti-C1s antibodies diluted in SuperBlock T20 blocking buffer were added to the plates and incubated for 1 h with gentle shaking. Mouse IgG (Sigma-Aldrich I5381) and Human IgG1 (BioXCell BP0297) were used as negative controls. The plates were washed before incubating with HRP conjugated secondary antibodies diluted in SuperBlock T20 blocking buffer (goat anti-mouse IgG (H+L) cross-adsorbed secondary antibody HRP (Invitrogen G-21040) or goat anti-human IgG antibody, HRP conjugate (Millipore AP309P)) for 1 h with gentle shaking. At last, the plates were washed and color developed with ELISA liquid substrate (Sigma-Aldrich), followed by stopping the reaction with addition of the same volume of […] 1M H₂SO₄. Bound antibody was measured by absorbance at OD₄₅₀ₙₘ.
On the technique in general: In an ELISA, binding on a coated surface is turned into a signal by an enzyme label.

Assay [4] addresses T4, human C1s deletion mutant 1 (M151) (human) (UniProt P09871).
T4 sequence: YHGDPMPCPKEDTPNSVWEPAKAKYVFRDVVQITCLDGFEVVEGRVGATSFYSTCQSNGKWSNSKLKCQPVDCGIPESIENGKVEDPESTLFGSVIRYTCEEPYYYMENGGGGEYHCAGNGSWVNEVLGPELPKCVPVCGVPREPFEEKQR
Description: ELISA, plate coated with 200 ng/well HuC1s(M151), OD450nm.

The values that follow come from patent publication US20230051715A1 (MABWELL THERAPEUTICS, published 2023).

Residue numbers refer to the chain shown, from its start. Names and notes keep the numbering of the source.

B1: Anti-C1s antibody hz2-8 (H1L2 G80A) (antibody, V domains shown)
VH: QVQLVQSGAEVKKPGASVKVSCKASGFNIKEYYMHWVRQAPEQGLEWMGWIDPENADTIYAQKFQGRVTITADTSTNTAYMELSSLRSEDTAVYYCARSRLFFAYWGQGTLVTVSS
VL: DIQMTQSPKSLSASVGDRVTITCRASQDVRTALDWYQQKPGQSPKLLIYSASYRYSGVPSRFSGSGSGTDFTLTISSLQPEDFATYYCQQQYTTPYTFGQGTKLEIKR
notes: Humanized variant with G80A in HC CDR2 (already in the entry), human IgG1 / kappa
On to B1, for which the “IC50, inhibition of IgM-induced C4 deposition from CMS” value (“IC50, inhibition … from CMS” below) in assay [1] was found to be 0.5 mg/L. Also, the “IC50, inhibition of IgM-induced C4 deposition from NHS” value (“IC50, inhibition … from NHS” for short) in assay [2] was found to be 0.5 mg/L.

B2: Anti-C1s antibody hz2-8 (H1L2 G80A/T82A) (antibody, V domains shown)
VH: B1 VH with T58A
VL: B1 VL
notes: Humanized variant with G80A and T82A in HC CDR2 (already in the entry), human IgG1 / kappa
Consider B2, for which, in assay [1], the “IC50, inhibition … from CMS” value amounted to 0.4 mg/L. Further, in assay [2], the “IC50, inhibition … from NHS” value was 0.4 mg/L. The same molecule came in with an EC50 in assay [3] of 0.004 mg/L.

B3: Anti-C1s antibody hz2-7(H1L2) (antibody, V domains shown)
VH: EVQLLESGGGLVQPGGSLRLSCAASGFTFSNYFMNWVRQAPGKGLEWVSEIRLKFTNYATHYADSVKGRFTISRDDSKSTLYLQMNSLRAEDTAVYYCTRDYGSRNGYFDYWGQGTLVTVSS
VL: DIVMTQTPLSLPVTPGEPASISCRSSKSLLHSNGNTFLYWFLQKPGQSPQLLIYRMSNLASGVPDRFSGSGSGTDFTLKISRVEAEDVGVYYCMQHLEYPYTFGGGTKLEIKR
notes: Humanized, human IgG1 / kappa; also called hz2-7(1L2)
B3: in assay [1], the “IC50, inhibition … from CMS” value came out at 0.9 mg/L and the “IC50, inhibition of cynomolgus monkey complement-mediated lysis of EA” value amounted to 0.8 mg/L. For the same molecule, in assay [2], the “IC50, inhibition … from NHS” value was determined as 1.1 mg/L and the “IC50, inhibition of human complement-mediated lysis of EA” value was found to be 4.1 mg/L. The molecule also yielded an EC50 in assay [3] of 0.006 mg/L. Also, the EC50 in assay [4] came out at 0.008 mg/L.

B4: Anti-C1s antibody 2-7 (antibody, human IgG1, kappa, V domains shown)
VH: EVKLEESGGGLVPPGGSMKLSCVASGFTFSNYFMNWVRQSPEKGLEWVAEIRLKFTNYATHYAESVEGRFTISRDDSKSSVYLQMNNLRAEDTGIYYCTRDYGSRNGYFDYWGQGTTLTVSS
VL: DIVMTQAAPSVPVTPGESVSISCRSSKSLLHSNGNTFLYWFLQRPGQSPQLLIYRMSNLASGVPDRFSGSGSGTAFTLRVSRVEAEDVGIYYCMQHLEYPYTFGGGTKLEIKT
notes: the HC/LC entries may hold it too; also called clone 2-7
In the case of B4, the “IC50, inhibition of IgM-induced C4 deposition from cynomolgus monkey serum” value in assay [1] was about 0.3 mg/L. In addition, the figures for the EC50 in assay [3] and in assay [4] were 0.006 mg/L and 0.013 mg/L, respectively.

B5: Anti-C1s antibody 2-8 (antibody, V domains shown)
VH: EVQLQQSGAELVRPGALVKLSCKASGFNIKEYYMHWVKQRPEQGLEWIGWIDPENGDTIYDPKFQGKASITADTSSNTAYLQLSSLTSEDTAVYYCARSRLFFAYWGQGTLVTVSA
VL: DIVMTQSHKFMSTSVGDRVSFTCKASQDVRTAVDWYQQKPGQSPKLLIYSASYRYTGVPDRFTGTGSGTDFTFTISSVQAEDLAVYFCQQQYTTPYTFGGGTKLEIKT
notes: the HC/LC entries may hold it too; also called clone 2-8
For the molecule B5, the “IC50, inhibition of IgM-induced C4 deposition from cynomolgus monkey serum” value in assay [1] was about 0.5 mg/L. Further, the results for the EC50 in assay [3] and in assay [4] were 0.005 mg/L and 0.018 mg/L, respectively.

For orientation: EC50 means the concentration at which the effect is half-maximal.
